# Experimental data: PMC3526519, “Rationally re-designed mutation of NAD-independent L-lactate dehydrogenase: high optical resolution of racemic mandelic acid by the engineered Escherichia coli” (Microbial Cell Factories, 2012)
# T1: L-iLDH (NAD-independent L-lactate dehydrogenase) (Stutzerimonas stutzeri, UniProt I1SLB1, V108A)
# T1 construct: gene lldD; membrane flavoprotein; wild-type prepared as in earlier report
# T1 sequence (I1SLB1 1-391 V108A): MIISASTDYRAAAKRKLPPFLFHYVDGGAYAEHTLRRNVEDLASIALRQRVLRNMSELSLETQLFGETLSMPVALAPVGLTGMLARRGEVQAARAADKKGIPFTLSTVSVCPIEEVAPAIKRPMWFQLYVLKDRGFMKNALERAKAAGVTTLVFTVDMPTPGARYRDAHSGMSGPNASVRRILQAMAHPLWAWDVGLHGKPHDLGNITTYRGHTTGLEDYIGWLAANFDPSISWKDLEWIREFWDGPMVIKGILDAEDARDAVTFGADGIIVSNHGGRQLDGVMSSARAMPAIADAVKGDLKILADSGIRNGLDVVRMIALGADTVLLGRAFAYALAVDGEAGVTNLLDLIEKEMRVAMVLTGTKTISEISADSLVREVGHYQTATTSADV
# What was measured:
# [1] = target: T1, L-iLDH (NAD-independent L-lactate dehydrogenase); experiment: DCIP reduction at […] nm, double-reciprocal plots; format: biochemical; conditions: competitive versus L-mandelate; 0.0625 mM DCIP, 50 mM Tris-HCl pH 7.5, 30 °C
# C[C@H](O)C(=O)O = system: T2, C[C@H](O)C(=O)O; experiment: purified protein; format: biochemical, Stutzerimonas stutzeri; conditions: 0.0625 mM DCIP as electron acceptor, 50 mM Tris-HCl pH 7.5, 30 °C
# T2 construct: membrane flavoprotein; wild-type prepared as in earlier report
# O=C(O)[C@@H](O)c1ccccc1 = system: T3, O=C(O)[C@@H](O)c1ccccc1; experiment: purified protein; format: biochemical, Stutzerimonas stutzeri; conditions: 0.0625 mM DCIP as electron acceptor, 50 mM Tris-HCl pH 7.5, 30 °C
# T3 construct: membrane flavoprotein; wild-type prepared as in earlier report
# purified protein [2] = substrate: C[C@H](O)C(=O)O; experiment: purified protein; format: biochemical, Stutzerimonas stutzeri; conditions: 0.0625 mM DCIP as electron acceptor, 50 mM Tris-HCl pH 7.5, 30 °C
# purified protein [3] = substrate: O=C(O)[C@@H](O)c1ccccc1; experiment: purified protein; format: biochemical, Stutzerimonas stutzeri; conditions: 0.0625 mM DCIP as electron acceptor, 50 mM Tris-HCl pH 7.5, 30 °C
molecule,measurement,setting,value
O=C(O)[C@H](O)c1ccccc1 [D-mandelate],Ki,[1],5.5 ± 0.5 mM
L-iLDH (NAD-independent L-lactate dehydrogenase) (Stutzerimonas stutzeri; V108A),Km,C[C@H](O)C(=O)O,800 ± 100 µM
same,kcat,C[C@H](O)C(=O)O,185 ± 36 s⁻¹
same,kcat/Km,C[C@H](O)C(=O)O,231000 M⁻¹ s⁻¹
same,Km,O=C(O)[C@@H](O)c1ccccc1,1600 ± 100 µM
same,kcat,O=C(O)[C@@H](O)c1ccccc1,97 ± 13 s⁻¹
same,kcat/Km,O=C(O)[C@@H](O)c1ccccc1,61000 M⁻¹ s⁻¹
"L-iLDH (NAD-independent L-lactate dehydrogenase) (Stutzerimonas stutzeri) (protein, membrane flavoprotein; wild-type prepared as in earlier report) MIISASTDYRAAAKRKLPPFLFHYVDGGAYAEHTLRRNVEDLASIALRQRVLRNMSELSLETQLFGETLSMPVALAPVGLTGMLARRGEVQAARAADKKGIPFTLSTVSVCPIEEVAPAIKRPMWFQLYVLKDRGFMKNALERAKAAGVTTLVFTVDMPTPGARYRDAHSGMSGPNASVRRILQAMAHPLWAWDVGLHGKPHDLGNITTYRGHTTGLEDYIGWLAANFDPSISWKDLEWIREFWDGPMVIKGILDAEDARDAVTFGADGIIVSNHGGRQLDGVMSSARAMPAIADAVKGDLKILADSGIRNGLDVVRMIALGADTVLLGRAFAYALAVDGEAGVTNLLDLIEKEMRVAMVLTGTKTISEISADSLVREVGHYQTATTSADV",Km,purified protein [2],180 ± 10 µM
same,kcat,purified protein [2],445 ± 44 s⁻¹
same,kcat/Km,purified protein [2],2.47e+06 M⁻¹ s⁻¹
same,Km,purified protein [3],6800 ± 1000 µM
same,kcat,purified protein [3],8.3 ± 1.3 s⁻¹
same,kcat/Km,purified protein [3],1200 M⁻¹ s⁻¹
